Consider 1 protein from patent publication US7252930 (Takeda / Millennium, dated 2007).

This data set deals with the molecule itself. Kind of data set: X-ray crystal structure, homodimer in the asymmetric unit.

B1: MvaS (HMG-CoA Synthase) from Enterococcus faecalis, full length with non-cleavable carboxy-terminal six histidine tag, seleno-methionine labeled (enzyme)
chain: MTIGIDKISFFVPPYYIDMTALAEARNVDPGKFHIGIGQDQMAVNPISQDIVTFAANAAEAILTKEDKEAIDMVIVGTESSIDESKAAAVVLHRLMGIQPFARSFEIKEACYGATAGLQLAKNHVALHPDKKVLVVAADIAKYGLNSGGEPTQGAGAVAMLVASEPRILALKEDNVMLTQDIYDFWRPTGHPYPMVDGPLSNETYIQSFAQVWDEHKKRTGLDFADYDALAFHIPYTKMGKKALLAKISDQTEAEQERILARYEESIVYSRRVGNLYTGSLYLGLISLLENATTLTAGNQIGLFSYGSGAVAEFFTGELVAGYQNHLQKETHLALLDNRTELSIAEYEAMFAETLDTDIDQTLEDELKYSISAINNTVRSYRNKGHHHHHH
modifications: seleno-methionine in place of methionine (100% incorporation by MS); observed mass corresponds to protein without N-terminal methionine
notes: It was crystallized as a complex with the small molecule HMG-CoA; There are two MvaS molecules (A and B) in the asymmetric unit, described as a dimer; also called MvaS Ef
Consider B1, for which the binding result is recorded as “binds”.
